Measured values from paper PMC5912500.

Biological target: T1, Wild-type (WT) moesin, P26038
T1 chain: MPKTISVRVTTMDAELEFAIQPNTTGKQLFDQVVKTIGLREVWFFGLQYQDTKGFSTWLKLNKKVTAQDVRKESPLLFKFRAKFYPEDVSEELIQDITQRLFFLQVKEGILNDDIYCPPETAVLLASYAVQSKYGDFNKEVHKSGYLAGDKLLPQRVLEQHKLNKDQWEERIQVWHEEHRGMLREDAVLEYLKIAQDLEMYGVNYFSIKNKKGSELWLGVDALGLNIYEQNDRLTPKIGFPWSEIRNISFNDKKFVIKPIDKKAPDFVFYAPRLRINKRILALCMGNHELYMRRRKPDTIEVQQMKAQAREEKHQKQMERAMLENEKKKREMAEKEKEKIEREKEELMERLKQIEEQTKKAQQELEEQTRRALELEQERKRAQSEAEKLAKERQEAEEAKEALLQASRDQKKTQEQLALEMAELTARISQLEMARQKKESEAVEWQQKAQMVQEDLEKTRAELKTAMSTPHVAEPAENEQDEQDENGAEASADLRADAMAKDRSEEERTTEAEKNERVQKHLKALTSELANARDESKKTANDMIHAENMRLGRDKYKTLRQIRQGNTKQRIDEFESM
Assay: AUC
Conditions: remark: other sources report otherwise

percent of the protein as dimers: 29 to 31%
B1: Wild-type (WT) moesin, P26038 1-577 (natural protein)
chain: T1 chain
